Drawing on patent publication CN114133451A (HANGZHOU MEDICAL COLLEGE, dated 2022), this text covers Kd for 1 molecule.

This test addresses T1, 重组弓形虫毒力因子ROP18 (Toxoplasma gondii, UniProt Q2PAY2 1-554).
T1 construct: also called 弓形虫棒状体蛋白18; rhoptry protein 18; not shown: vector-derived tag of pET28a (fusion protein purified on Ni-NTA)
T1 sequence (looked up): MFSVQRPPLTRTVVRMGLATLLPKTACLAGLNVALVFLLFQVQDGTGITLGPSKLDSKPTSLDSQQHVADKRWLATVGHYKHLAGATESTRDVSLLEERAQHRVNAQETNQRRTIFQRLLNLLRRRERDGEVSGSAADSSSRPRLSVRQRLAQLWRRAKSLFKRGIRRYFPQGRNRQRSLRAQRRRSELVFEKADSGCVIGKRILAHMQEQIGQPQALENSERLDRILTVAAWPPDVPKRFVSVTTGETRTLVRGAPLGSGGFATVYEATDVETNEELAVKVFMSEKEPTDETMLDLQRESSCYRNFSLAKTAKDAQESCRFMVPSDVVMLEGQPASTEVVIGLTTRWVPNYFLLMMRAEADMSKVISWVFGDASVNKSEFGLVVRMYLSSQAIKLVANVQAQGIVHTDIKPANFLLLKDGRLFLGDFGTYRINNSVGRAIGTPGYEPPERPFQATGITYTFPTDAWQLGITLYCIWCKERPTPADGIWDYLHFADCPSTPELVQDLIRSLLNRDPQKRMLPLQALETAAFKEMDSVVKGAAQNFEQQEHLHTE
The test is described as follows: SPR, Biacore T100, 1:1 binding fit. For orientation: In SPR one partner is held on a chip, and binding of the other changes the refractive index at the surface.

One may read the Kd as the equilibrium constant for the complex coming apart. Low values mean tighter binding, high ones weaker binding.

B1: 弓形虫毒力因子ROP18纳米抗体22号克隆株 (VHH)
VHH: QVQLVESGGGSVQAGGSLRLSCVASRYTYTYSTYCLGWFRQAPGKEREEIAIIDSDGGARYADSVKGRFTISRDNAKSTLYLHMNSLKPDDTAMYSCAAGRPAPSLGYKCMYNSRHKGTLVTVSS
notes: also called 毒力因子纳米抗体; pMECS-ROP18-22; not shown: tag from the pMECS vector (purified on a nickel column, detected with anti-His a)
For B1, the Kd is 2.72 nM.
